According to the nanobody polyreactivity screen of Harvey et al. (2022):

Assay: yeast display, Sf9 membrane polyspecificity reagent, FACS + sequencing; frameworks hold sequencing errors
In short: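 A nanobody's polyreactivity label depends on the gate it was sorted from. Yeast display cells were stained with 10% biotinylated, detergent-solubilized Sf9 membrane reagent for 1 hour at 4 °C, enriched on streptavidin microbeads and sorted by FACS. The low and high (top ~1%) gates were set on anti-HA fluorescence for expression and streptavidin fluorescence for reagent binding.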

Sequence | polyreactivity (PSR sort gate)
QVQLVESGGGLVQAGGSLSLSCAASGRIFYVNTMGWYRQAPGKERELVATISSAASTNYADSVKGRFTISRDNAKNTVYLQMNSLKPEDTAVYYCNAAFYKEYYYWGQGTQVTVSS | low polyreactivity
QVQLVESGGGLVQAGGSLSLSCAASGRITCGYAMGWYRQAPGKERELVAVINFNGGRTYYADSVKGRFTISRDNAKNTVYLQMNSLKPEDTAVYYCAADSGYEYDYWGQGTQVTVSS | low polyreactivity
QVQLVESGGGLVQAGGSLSLSCAASGRITRFNAMGWYRQAPGKERELVAAITRGASTYYADSVKGRFTISRDNAKNSVYLQMNRLKQEDTAVYYCAAAPRYSWTSVARYDYWGQGTQVTVSS | high polyreactivity
QVQLVESGGGLVQAGGSLSLSCAASGRIYYYAMGWYRQAPGKERELVAAITGRGGSTYYADSVKGRFTISRDNAKNRVYLQMNSLKPEDTAVYYCARAGCPRHDWGQGTQVTVSS | high polyreactivity
QVQLVESGGGLVQAGGSLSLSCAASGRLFKIDAMGWYRQAPGKERELVATISSGGRTNYADSVKGRFTISRDNAKNSVYLQMNSLKPEVTAVYYCNAGARVLYETESFDYWGQGIQVTVSS | low polyreactivity
QVQLVESGGGLVQAGGSLSLSCAASGRTFAPYAMGWYRQAPGKEREFVAGITWSSSSTYADSVKGRFTISRDNAKITVYFQMNSLKPEDPAVYYCAASHAKGGNRHYYWGQGTQVTVSS | high polyreactivity
QVQLVESGGGLVQAGGSLSLSCAASGRTFVPYAMGWYRQAPGKERELVADITDGDGSTYADSVKGRFTISRDNAKNTVYLQMNSLKPEYTAVYYCAAQSRRLVTRWPVTFGYWGQGTQVTVSS | low polyreactivity
QVQLVESGGGLVQAGGSLSLSCAASGRTFWYKDMGWYRQAPGKERELVAVISSGAITFYADSVKGRFTISRDNAKNTVYLQMNSLNPEDTAVYYCAARSYLSLIDYWGQGTLVTVSS | high polyreactivity
QVQLVESGGGLVQAGGSLSLSCAASGSIFRGNAMGWYRQAPGKERELVAANSYSSGTTYYADSVKGRFTISRDNAKNTVYFQMNSLKPEDTAVYYCATRYYRGYVRGTHHVGGYYYRGQGTQVTVSS | low polyreactivity
QVQLVESGGGLVQAGGSLSLSCAASGSIFRSYAMGWYRQAPGKERELVAAITNGGSTYYADSVKGRFTISRDNAKNTVYLQMNSLKPEDTAVYYCAAARYTYWFYLVKKTGYYWGQGTQVTVSS | high polyreactivity
QVQLVESGGGLVQAGGSLSLSCAASGSIFSYYDMGWYIQAPGKERELVAGISRGGSTNYADSVKGRFTISRDNAKNTVYLQMNSLKPEDPAVYYCNADYIFWLTLFDYWGQGTQVTVSS | low polyreactivity
QVQLVESGGGLVQAGGSLSLSCAASGSILGYYAMGWYRQAPGKERELVAAISGRGGSTYYADSVKGRFTISRDNAKNPVYLQMNSLKPEDTAVYYCAKRSVWRGWGQGTQVTVSS | high polyreactivity
QVQLVESGGGLVQAGGSLSLSCAASGSILYFNAMGWYRQAPGKERELVAAISRSGGSTYYADSVKGRFTISRDNAKNTVYIQMNSLKPEDTAVYSCAASYTVYYWGQGTQVTVTS | high polyreactivity
QVQLVESGGGLVQAGGSLSLSCAASGSISYRYAMGWYRQAPGKERELVAAITSGGRTYYADSVKGRFTISRDNAKYTVYLQMNSLKPEDTAVYYCAKSKPVGPYYYWGQGTQVTVSS | high polyreactivity
QVQLVESGGGLVQAGGSLSLSCAASGSLFRPNAMGWYRQAPGKERELVAAITWSGDSTYYADSVKGRFTISRDNAKNTVYLQMNSLKPEATAVYYCAADFTYQGSSANDYWGQGTQVTVSS | low polyreactivity
QVQLVESGGGLVQAGGSLSLSCAASGSNFNVYVMGWYRQAPGKERELVAAITYRGASTYYADSVKGRFTFSRDNAKNTVYLQMNSLKPEDTAVYYCAARYGYRSVYRSYNSRPYDYWGQGTQVTVSS | high polyreactivity
QVQLVESGGGLVQAGGSLSLSCAASGSTFAYYAMGGYRQAPGKERELVAGITWTGGSTYYADSVKGRFTISRDNAKNTVYLQMNSLKPEDTAVYYCAVTYPYGYEYDHWGQGTQVTVSS | low polyreactivity
QVQLVESGGGLVQAGGSLSLSCAASGSTFTEYAMGWDRQAPGKERELVAGISSDGSTKYADSVKGRFTISRDNAMNTVYLQMNSLKTEDTAVYYCYIVQSYAKYDYWGQGTQVTVSS | low polyreactivity
QVQLVESGGGLVQAGGSLSLSCAASGSTFTYYDMGWYRQAPGKERELVAAISSSGGRTYYSDSVKGRFTISRDNAKNTVYLQMNSLKPEDTAVYYCARVVRPTDGDYWGQGTQVTVSS | high polyreactivity
QVQLVESGGGLVQAGGSLSLSCAASGSTFVPYAMGWYRQAPGKERELVAAISSTGGSTYYADSVKGRFTISRDNAKNTVYLQMNSLKAEDTAVYYCNALAKIRYGQINKGYYWGQGTQVTVSS | high polyreactivity
QVQLVESGGGLVQAGGSLSLSCAASGYIFLVYAMGWYRQAPGKERELVASITRGGGTTYYADSVKGRFTISRDNAKNTVYLLMNSLKREDTAVYYCAADLYSRGHRWYGYWGQGTQVTVSS | high polyreactivity
QVQLVESGGGLVQAGGSLSLSCAASGYTLYANAMGWYRQAPGKERELVAAIRSGGSTNYADSVKGRFTISRDNAKNTVYLQMNSMKPEDTAVYYCAKDPYQDFLYLRYYGYYYWGQGTQVTVSS | low polyreactivity

Sequence | polyreactivity (PSR sort gate)
QVQLVESGGGLVQAGGSLSLSCPASGRTFSTNAMGWYRQAPGKEREMVAAISARGGSTYYADSVKGRFTISRDNAKNTVYLQMNSLKPEDTAVEYCALRPGRYSYAFDFWGQGTQVTVSS | high polyreactivity
QVQLVESGGGLVQAGGSLSLSSAASGRPFIRNAMGWSRQAAGKERELVAGINSGGITNYADSVKGRFTISRDNAKNTVYLQMNSLKPVDTAFYYCNARQVLYGLYLRAYPYEYWGQGTQVTVSS | low polyreactivity
QVQLVESGGGLVQAGGSLSLSSAASGRTFGIYAMGWYRQEPGKERELVAAITWSGDSTYYADSVKGRFTISRDNAKNTVYLQLNSLKPEDTAVDYCAADYVGVTYVRYDYWGQGTQVTVSS | low polyreactivity
QVQLVESGGGLVQAGGSLSLSSAASGSIFVGNAIAWYRQAPGKERELVATISWSCGSTYYADSVKGRFTISRDYAKNNVYLQMNSRKPEDTAVYYCAAEFGGYDPYDYWGQGTQVTVSS | low polyreactivity
QVQLVESGGGLVQAGGSLSLSSDASGSPLFSDAMGWYRQAPGKEREFVAAISRRGRSTYYADSVKGRFTISRDNAKNSVYFQMNSLIPEDTAVYYCAARDSSYNWYGYWGQGTQVTVSS | high polyreactivity
QVQLVESGGGLVQAGGSLSLTCAASGIIFSYNAMGWYRQATGKERELVAAISWSGGSTYYADSVKGRFTISRDNAKNTVYLQMNSLKPEDTAVYYCNAPYLIRFKRLGDNWGQGTQVTVSS | high polyreactivity
QVQLVESGGGLVQAGGSLSLTCAASGRTFESNAMGWYRQAPGKERELVAVITSGGITNYTDSVKGRFTISRDNAKNTVYLQLNSLKPVDTAVYYCEFYYWGQGTQVTVSS | low polyreactivity
QVQLVESGGGLVQAGGSLSLTCAASGSSFWPYAMGWYRQAPGKELELVAASTTRDGSTYYADSVKGRFTISRDNAKNTVYLQMISLKTEDTAVYYSAAVVLRDGWWGYYYWGQGTQVTVSS | high polyreactivity
QVQLVESGGGLVQAGGSLSLTWAASGSTFSYYVMGWYRQAPGKETELVAGITRGGRTYYADSENGRFTISRDNAKNSVFLQMNSLKPEDTAVYYCAKDQGGVLELDYWGQGTQVTVSS | low polyreactivity
QVQLVESGGGLVQAGGSPRLSCAASGFTFGHYAMGWYREAPGKERELVAAISIDGGRTYYADSVKGRFTISRDNAKNSVYLQMNSLKPEDTAVYYCAVPRWFYYYWGQGTQVTVSS | high polyreactivity
QVQLVESGGGLVQAGGSQRLSCAASGSIFLRYAMGWYRQAPGKERELVAAITSSGGSTYYADSVKGRFTISRDNAKNTVYLQMTSLKPEDTAVYYCNRYSYLFPYYWKYDYWGQGTQVTVSS | high polyreactivity
QVQLVESGGGLVQAGGSRLSCAASGLIFISYTMGWYRPAPGKERELVAAIDSSGGNTYYADSVKGRFTISRDNAKNTVYLQMNSLKPEDTAVYYCAKDVGHGAGNLMGYWGQGTQVTVSS | low polyreactivity
QVQLVESGGGLVQAGGSRRLICAASGITFFAYTLGWYRQAPGKERELVASITGSSGGTYYADSVKGRFTISRDNAKNTVYLQMNSLKPEDTAVYYCATAYGRKLLLRGFYDQSHDMDYWGQGTQVTVSS | low polyreactivity
QVQLVESGGGLVQAGGSRRLSCAASGGTFPFNAMGWYSPAPGKERELVAAITFTTSSTYYADSVKGRFTMSRDNAKNTVYLQMTSLKPEDTAVDYCAVDYGWYSAYYRESDYWGQGTQVTVSS | low polyreactivity
QVQLVESGGGLVQAGGSRRLSCAASGLICLLYDMGWYREAPGKERELVAAISTGGSTDYADSVKGRFTISRDNAKNTVYLPLNSLKPEDTAVYYCAADYYLYYLDGEDYWVQGTQVTVSS | high polyreactivity
QVQLVESGGGLVQAGGSRRLSCAASGLIYWYAMGWYRQAPGKERELVAAISSNGGSTYYADSVKGRFTISRDNAKNTVYLQMNSLKPEDTAVYYCAVTSFGYSVLERDYWGQGTQVTVSS | low polyreactivity
QVQLVESGGGLVQAGGSRRLSCAASGNTFYANVMGWYRQAPGKERELVASITWSGGSTYYADSVKGRFTISRDNAKNTVYLQMNSLKPEDTAVYYCATSGDRLVWGQGTQVTVSS | low polyreactivity
QVQLVESGGGLVQAGGSRRLSCAASGRIFDTYTMGWYRQAPGKERELVAAITTGGSTYYADSVKGRFTISRDNAMNTVYLQMNSLKPEDTAVYYCAARYRSIIRYYYWGQGTQVTVSS | high polyreactivity
QVQLVESGGGLVQAGGSRRLSCAASGRIFTTYAMGWYRQAPGKERELVAAITRNGGRTYYADSVKGRFTLSRDNAKNTVYVPMHSLKPEDTAVYYCAAVYRSFGKVYGMDYWGQGTQVTVSS | high polyreactivity
QVQLVESGGGLVQAGGSRRLSCAASGRTFEGNAMGWYRPAPGKERELVAAISTSGGRTYYADSVKGRFTISRDNAKNTVYLQLNSLIPEDTAVYDCNTDQYSPYEYSSFDSWGQCTQVTVSS | low polyreactivity
QVQLVESGGGLVQAGGSRRLSCAASGRTFPYNAMGWYRQATGKERELVATNDSSGTRTFYADSVKGRFTISRDNAKNTVYLQLNRLKPEDNAVYYCAAGIIYSNETNITSYDYWGQGTQVTVSS | low polyreactivity
